# Results from patent US20160367623A1, “AGONISTS OF GUANYLATE CYCLASE USEFUL FOR THE TREATMENT OF GASTROINTESTINAL DISORDERS, INFLAMMATION, CANCER AND OTHER DISORDERS” (priority 2015, published 2016).
# Bridge positions count the residues as written; N and C are the ends. Ends that are not written are not given here.
# System: patients with chronic idiopathic constipation (CIC)
# Settings: in vivo
substance,measurement,value
"Asn^1-Asp^2-Glu^3-Cys^4-Glu^5-Leu^6-Cys^7-Val^8-Asn^9-Val^10-Ala^11-Cys^12-Thr^13-Gly^14-Cys^15-Leu^16 (NDECELCVNVACTGCL; disulfide 4-12, 7-15) [Plecanatide]","serum chemistries, hematology, urinalysis, ECG or vital signs",No clinically relevant abnormalities were observed
